Experimental data: patent US9988424 (DUKE UNIVERSITY, dated 2018)
Residue numbers refer to the chain shown, from its start. Read-outs that look alike come from different tables or passages of the source.

How the values were obtained:
A.9004SS V1/V2 tags [1] = target: T1, A.9004SS V1/V2 tags; assay: ELISA, OD405 at 10 ug/ml
T1 V1V2 tags construct: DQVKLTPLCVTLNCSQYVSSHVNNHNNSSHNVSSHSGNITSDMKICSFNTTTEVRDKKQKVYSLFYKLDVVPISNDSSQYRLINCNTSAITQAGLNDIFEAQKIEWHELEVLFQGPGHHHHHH

B.040 gp140C = assay: ELISA, OD405 at 10 ug/ml
B.62357 gp140C [2] = target: T2, B.62357 gp140C; assay: ELISA, OD405 at 10 ug/ml
T2 construct: also called B.62357 140C

Con 6 gp120 [3] = assay: ELISA, OD405 at 10 ug/ml
C.1086 V1V2 Tags [4] = target: C.1086 V1V2 Tags (HIV-1); assay: ELISA, OD405 at 10 ug/ml
B.9021 gp140C [5] = target: B.9021 gp140C (HIV-1); assay: ELISA OD405nm, bar chart, antibody concentration not given
AE.A244 V1V2 Tags = AE.A244 V1V2 Tags (HIV-1); assay: ELISA
A.9004SS V1/V2 tags [6] = target: T1, A.9004SS V1/V2 tags; assay: ELISA, OD405 at 10 ug/ml
AE.con gp140CF = assay: ELISA, OD405 at 10 ug/ml
B.62357 gp140C [7] = target: T2, B.62357 gp140C; assay: ELISA, OD405 at 10 ug/ml; remark: listed apart in the source
B.63521_V1/V2 tags = assay: ELISA, OD405 at 10 ug/ml
B.Case A2 V1/V2 tags = assay: ELISA, OD405 at 10 ug/ml
B.con gp140CF = assay: ELISA, OD405 at 10 ug/ml
C.1086 gp140 = target: T3, C.1086 gp140; assay: ELISA, OD405 at 10 ug/ml
T3 construct: also called C.1086gp140C

Con 6 gp120 [8] = assay: ELISA, OD405 at 10 ug/ml; remark: listed apart in the source
D.9009SA V1/V2 tags = assay: ELISA, OD405 at 10 ug/ml
G.con gp140CF = assay: ELISA, OD405 at 10 ug/ml
C.CAP206 gp140CF.12 = C.CAP206 gp140CF.12 (HIV-1); assay: ELISA, OD405 at 10 ug/ml
C.1086 V1V2 Tags [9] = target: C.1086 V1V2 Tags (HIV-1); assay: ELISA, OD405 at 10 ug/ml; remark: listed apart in the source
gp70 C.1086 V1/V2 = target: T4, gp70 C.1086 V1/V2 (HIV-1 V1V2 on murine leukemia virus gp70); assay: ELISA, OD405 at 10 ug/ml
T4 construct: also called C.gp70 1086C V1V2; C.1086gp70V1V2
T4 chain: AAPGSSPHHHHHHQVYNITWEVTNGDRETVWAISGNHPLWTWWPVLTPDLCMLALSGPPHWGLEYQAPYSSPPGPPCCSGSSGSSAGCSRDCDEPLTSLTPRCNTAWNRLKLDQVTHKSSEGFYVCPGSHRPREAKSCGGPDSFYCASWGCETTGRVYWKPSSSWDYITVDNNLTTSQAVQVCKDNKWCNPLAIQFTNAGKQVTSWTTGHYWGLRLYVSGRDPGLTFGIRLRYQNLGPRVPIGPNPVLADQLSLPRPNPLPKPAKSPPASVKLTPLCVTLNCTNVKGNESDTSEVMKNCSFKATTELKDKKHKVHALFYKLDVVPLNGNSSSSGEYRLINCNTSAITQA

AE.97CNG2XF gp140CF = target: T5, AE.97CNG2XF gp140CF (HIV-1); assay: ELISA, OD405 at 10 ug/ml
T5 construct: also called E.97CNGX2F gp140CF

B.HXB/BAL gp140CFI = target: T6, B.HXB/BAL gp140CFI (HIV-1, UniProt P04578 33-680); assay: ELISA, OD405 at 10 ug/ml
T6 construct: also called B.HxB/Ba gp140 CFI

B.9021 gp140C [10] = target: B.9021 gp140C (HIV-1); assay: ELISA, OD405 at 10 ug/ml
C.1086 gp120 = C.1086 gp120 (HIV-1); assay: ELISA, OD405 at 10 ug/ml
SIV CPZ US-1 gp140CF = target: T7, SIV CPZ US-1 gp140CF (SIVcpz); assay: ELISA, OD405 at 10 ug/ml
T7 construct: also called US-1 SIVCPZ gp140CF
T7 chain: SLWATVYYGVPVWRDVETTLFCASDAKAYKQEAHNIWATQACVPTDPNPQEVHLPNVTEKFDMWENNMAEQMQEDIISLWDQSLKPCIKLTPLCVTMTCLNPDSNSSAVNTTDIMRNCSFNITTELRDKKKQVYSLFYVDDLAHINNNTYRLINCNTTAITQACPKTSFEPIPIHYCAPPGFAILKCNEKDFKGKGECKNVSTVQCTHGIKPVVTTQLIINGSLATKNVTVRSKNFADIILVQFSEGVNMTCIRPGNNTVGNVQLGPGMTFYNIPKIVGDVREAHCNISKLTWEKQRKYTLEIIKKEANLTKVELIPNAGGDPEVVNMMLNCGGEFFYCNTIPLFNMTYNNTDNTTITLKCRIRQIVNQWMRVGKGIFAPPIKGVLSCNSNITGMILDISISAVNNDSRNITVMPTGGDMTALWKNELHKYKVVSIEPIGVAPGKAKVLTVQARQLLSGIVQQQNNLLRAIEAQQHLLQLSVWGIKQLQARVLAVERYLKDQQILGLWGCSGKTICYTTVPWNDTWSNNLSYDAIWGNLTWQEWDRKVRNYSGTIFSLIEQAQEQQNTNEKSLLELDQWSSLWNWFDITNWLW

B1: PG9 reverted unmutated ancestor antibody (antibody, V domains shown)
VH: QVQLVESGGGVVQPGRSLRLSCAASGFTFSSYGMHWVRQAPGKGLEWVAVISYDGSNKYYADSVKGRFTISRDNSKNTLYLQMNSLRAEDTAVYYCAREAGGPDYRNGYNYYDFWSGYYNYYYMDVWGKGTTVTVSS
VL: QSALTQPASVSGSPGQSITISCTGTSSDVGSYNLVSWYQQHPGKAPKLMIYEVSKRPSGVSNRFSGSKSGNTASLTISGLQAEDEADYYCCSLTSTRRWVFGGGTKLTVL
notes: also called PG9 RUA; PG9_RUA
binding result (A.9004SS V1/V2 tags [1]): no binding (tested: 10 ug/ml)
binding result (B.040 gp140C): no binding (tested: 10 ug/ml)
binding result (B.62357 gp140C [2]): no binding (tested: 10 ug/ml)
binding result (Con 6 gp120 [3]): no binding (tested: 10 ug/ml)
binding result (C.1086 V1V2 Tags [4]): no binding (tested: 10 ug/ml)

B2: CH59 reverted unmutated ancestor antibody (antibody, V domains shown)
VH: EVQLVESGGGLVQPGRSLRLSCAASGFTFDDYAMHWVRQAPGKGLEWVSGISWNSGSIGYADSVKGRFTISRDNAKNSLYLQMNSLRAEDTALYYCAKDSPRGELPFDYWGQGTLVTVSS
VL: SYELTQPPSVSVSPGQTARITCSGDALPKKYAYWYQQKSGQAPVLVIYEDSKRPSGIPERFSGSSSGTMATLTISGAQVEDEADYYCYSTDSSGNHRVFGGGTKLTVL
notes: also called CH59 RUA; CH59_RUA
binding result (B.9021 gp140C [5]): no binding (tested: not given)

B3: 697D (antibody, V domains shown)
VH: QVQLVQSGAEVKKPGSSVKVSCKASGGNFNTYTISWVRQAPGQGLEWMGRIIPIFGIVNPAQKFPGRVTINVDKSTNTAYMELSSLRSEDTAVYYCATSGVGLHFGYFDYWGQGTQVTVSS
VL: QSVLTQPPSVSGAPGQRVTISCTGSSSNIGAHYDVHWYQQLPGTAPKLLIYGNSNRPSGVPDRFSGSKSGTSASLAITGLQAEDEADYYCQSYDSSLSGYVFGTGTKVTVL
notes: also called mAb 697D; V2 conformational mAb 697D
EC50 (read off the curve) (AE.A244 V1V2 Tags): ~0.1 µg/mL

B4: 697D reverted unmutated ancestor antibody (antibody, V domains shown)
VH: QVQLVQSGAEVKKPGSSVKVSCKASGGTFSSYTISWVRQAPGQGLEWMGRIIPILGIANYAQKFQGRVTITADKSTSTAYMELSSLRSEDTAVYYCATSGVGLHFGYFDYWGQGTLVTVSS
VL: B3 VL with H32G
notes: also called 697D RUA
binding result (A.9004SS V1/V2 tags [6]): no binding (tested: 10 ug/ml)
binding result (AE.con gp140CF): no binding (tested: 10 ug/ml)
binding result (B.62357 gp140C [7]): no binding (tested: 10 ug/ml)
binding result (B.63521_V1/V2 tags): no binding (tested: 10 ug/ml)
binding result (B.Case A2 V1/V2 tags): no binding (tested: 10 ug/ml)
binding result (B.con gp140CF): no binding (tested: 10 ug/ml)
binding result (C.1086 gp140): no binding (tested: 10 ug/ml)
binding result (Con 6 gp120 [8]): no binding (tested: 10 ug/ml)
binding result (D.9009SA V1/V2 tags): no binding (tested: 10 ug/ml)
binding result (G.con gp140CF): no binding (tested: 10 ug/ml)
binding result (C.CAP206 gp140CF.12): no binding (tested: 10 ug/ml)
binding result (C.1086 V1V2 Tags [9]): no binding (tested: 10 ug/ml)
binding result (gp70 C.1086 V1/V2): no binding (tested: 10 ug/ml)
binding result (AE.97CNG2XF gp140CF): no binding (tested: 10 ug/ml)
binding result (B.HXB/BAL gp140CFI): no binding (tested: 10 ug/ml)
binding result (B.9021 gp140C [10]): no binding (tested: 10 ug/ml)
binding result (C.1086 gp120): no binding (tested: 10 ug/ml)
binding result (SIV CPZ US-1 gp140CF): no binding (tested: 10 ug/ml)
